Experimental data: patent US20140134169A1, “Methods of Treating Ovarian Cancer with Dll4 Antagonists” (Regeneron Pharmaceuticals, Inc., priority 2012, published 2014)

What was measured:
human Dll4 = human Dll4 (human, UniProt Q9NR61 27-524, limits assumed); experiment: cell-based or functional assay
[1] = test system: human VM-Cub1 tumor cells (bladder carcinoma cells); experiment: Growth of human VM-Cub1 tumors implanted in humanized Dll4 SCID mice; format: in vivo; conditions: for TGI(%): day 32; for TGD: to 600 mm3
Protocol: The humanized Dll4 SCID mouse was made by replacing the entire extracellular domain of the mouse Dll4 gene with the corresponding extracellular region of the human Dll4 gene (7 kb) in embryonic stem (ES) cells. Homozygous hDll4 mice were generated and bred into SCID background.
A total of 45 mice were divided into nine groups (n=5 per cohort). The first group was treated subcutaneously (sc) with hFc at 2 mg/kg; the second and third groups were treated sc with REGN421 at 0.5 and 2 mg/kg, respectively; the fourth and fifth groups were treated intraperitoneally (ip) with cisplatin at 0.5 and 2 mg/kg, respectively; the sixth group was treated sc with REGN421 at 0.5 mg/kg and ip with cisplatin at 0.5 mg/kg; the seventh group was treated sc with REGN421 at 0.5 mg/kg and ip with cisplatin at 2 mg/kg; the eighth group was treated sc with REGN421 at 2 mg/kg and ip with cisplatin at 0.5 mg/kg; and the ninth group was treated sc with REGN421 at 2 mg/kg and ip with cisplatin at 2 mg/kg. REGN421 was administered every 3-4 days starting on day 14 and mice received three doses total. Cisplatin was administered every 24 hours starting on day 14; mice received four doses total.
To assess the effects of REGN421 and cisplatin as single agents or in combination treatments, the changes in tumor size were recorded. Tumor growth was measured three days before the initial REGN421 treatment, on the day of each REGN421 treatment (days 14, 17 and 21) and thereafter every 3-4 days until tumors reached ˜600 mm3 in size. In vivo tumor size was calculated using the formula (length×width2)/2 (FIG. 1 and Table 1).
Tumor Growth Inhibition, TGI, was determined by calculating the difference in tumor size for treated (T) versus vehicle control (C) tumor at the day the control cohort was euthanized (i.e., at day 32); TGI=[1−(Tfinal−Tinitial)/(Cfinal−Cinitial)]×100.
Tumor growth delay, TGD, was assessed as the difference in days between treated (T) versus control (C) tumors when each cohort reached a specified tumor size. The predetermined tumor size for this experiment was 600 mm^3.

[2] = test system: human HCT116 tumor cells (CRC); experiment: Growth of human HCT116 tumors in humanized Dll4 SCID mice (5-FU study); format: in vivo; conditions: REGN421 2 mg/kg sc (6 mg/kg total)
Protocol: Each mouse was implanted subcutaneously (sc) with 5×10^6 human HCT116 tumor cells (CRC). […] The mice were then treated with hFc, REGN421, 5-FU or combination of REGN421 and 5-FU. A total of 30 mice were divided into 6 groups (n=5 per cohort). The first group was treated sc with hFc at 2 mg/kg; the second group was treated sc with REGN421 at 2 mg/kg; the third and fourth groups were treated ip with 5-FU at 15 and 25 mg/kg, respectively; the fifth group was treated sc with REGN421 at 2 mg/kg and ip with 5-FU at 15 mg/kg; and the sixth group was treated sc with REGN421 at 2 mg/kg and ip with 5-FU at 25 mg/kg. REGN421 was administered every 3-4 days starting on day 22 and mice received three doses total. 5-FU was administered every 3-4 days starting on day 22 and mice received three doses total.
To assess the effects of REGN421 and 5-FU as single agents or in combination, the changes in tumor size (volume) were measured, beginning three days before the initial REGN421 treatment, and then on the day of each agent treatment (days 22, 26, 29) and thereafter every 3-4 days until tumors reach ˜600 mm^3 in size. In vivo tumor size is calculated using the formula (length×width^2)/2 (FIG. 3 and Table 5).

A2780 cells = experiment: A2780 ovarian xenograft (intraperitoneal) tumor growth inhibition; format: in vivo, human; conditions: for % TGI: REGN421 2.5 mg/kg 1x/week
Protocol: Ovarian tumor xenograft cells were implanted into humanized Dll4 SCID mice or vendor SCID mice (i.e., SCID mice expressing native murine Dll4). After implantation, mice were treated with REGN421 (anti-human Dll4 antibody, binds to human Dll4), mDll4Ab1 (anti-murine Dll4 antibody, binds to murine Dll4), or a human Fc domain control protein. In one study, mice were treated with VEGF-Trap, mDll4Ab1 or VEGF-Trap plus mDll4Ab1. TOV-112D cells (5×10^6) were implanted subcutaneously into the right flank of humanized Dll4 (n=4) or vendor SCID mice (n=7). Treatment with REGN421 (2.5 mg/kg, 1×/week) or mDll4Ab1 (5 mg/kg, 1×/week) vs. hFc control was initiated one week after tumor cell implantation. Animals were treated for 2 to 3 weeks. A2780 cells (2×10^6) were implanted intraperitoneally into humanized Dll4 or vendor SCID mice (n=4-5). Treatment with REGN421 (2.5 mg/kg, 1×/week) or mDll4Ab1 (5 mg/kg, 1×/week) vs. hFc control was initiated one week after tumor cell implantation. For the A2780 combination study, simultaneous treatment with mDll4Ab1 (5 mg/kg, 1×/week) and VEGF-Trap (10 mg/kg, 2×/week) was initiated one week after tumor cell implantation. A VEGF-Trap single treatment arm was included in this study. Animals bearing A2780 tumors were treated for 4-5 weeks. SKOV-3 cells (5×10^6) in matrigel were implanted subcutaneously and tumor-bearing animals (n=10) were dosed with REGN421 (2.5 mg/kg) and mDll4Ab1 (5 mg/kg) once weekly. OVCAR-3 cells (1×10^7) were implanted subcutaneously into the right flank of vendor SCID mice (n=7). Treatment with mDll4Ab1 (5 mg/kg 1×/week) vs. hFc control was initiated 66 days after tumor cell implantation. Animals were treated for a total of 5 weeks. Tumor growth inhibition (TGI) was measured as detailed above.

Chain of human Dll4 (Q9NR61 27-524 limits assumed): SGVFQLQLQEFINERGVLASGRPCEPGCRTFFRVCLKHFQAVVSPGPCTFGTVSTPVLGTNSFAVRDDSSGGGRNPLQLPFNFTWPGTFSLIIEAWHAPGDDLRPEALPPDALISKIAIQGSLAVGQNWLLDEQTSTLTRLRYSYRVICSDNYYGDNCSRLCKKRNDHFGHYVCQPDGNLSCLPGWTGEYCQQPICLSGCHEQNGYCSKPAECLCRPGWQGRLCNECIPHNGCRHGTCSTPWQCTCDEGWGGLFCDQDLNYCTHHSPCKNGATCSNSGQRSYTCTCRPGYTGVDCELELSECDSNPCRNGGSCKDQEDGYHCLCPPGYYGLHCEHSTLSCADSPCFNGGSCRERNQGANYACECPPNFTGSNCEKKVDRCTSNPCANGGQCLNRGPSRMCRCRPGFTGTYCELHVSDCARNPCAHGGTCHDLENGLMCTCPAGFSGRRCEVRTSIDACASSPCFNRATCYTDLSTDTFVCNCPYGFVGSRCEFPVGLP

- Hey-1 transcript Post-treatment vs. Pre-treatment ratio (patient 1, 0.25 mg/kg) (human Dll4): 0.52 ratio
- Hey-1 transcript Post-treatment vs. Pre-treatment ratio (patient 2, 0.25 mg/kg) (human Dll4): 0.85 ratio
- Hey-1 transcript Post-treatment vs. Pre-treatment ratio (patient 3, 0.25 mg/kg) (human Dll4): 0.77 ratio
- Hey-1 transcript Post-treatment vs. Pre-treatment ratio (patient 4, 0.25 mg/kg) (human Dll4): 0.51 ratio
- Hey-1 transcript Post-treatment vs. Pre-treatment ratio (patient 5, 0.25 mg/kg) (human Dll4): 0.61 ratio
- Hey-1 transcript Post-treatment vs. Pre-treatment ratio (patient 6, 0.25 mg/kg) (human Dll4): 0.55 ratio
- Hey-1 transcript Post-treatment vs. Pre-treatment ratio (patient 7, 0.25 mg/kg) (human Dll4): 0.75 ratio
- Hey-1 transcript Post-treatment vs. Pre-treatment ratio (patient 8, 0.5 mg/kg) (human Dll4): 0.68 ratio
- Hey-1 transcript Post-treatment vs. Pre-treatment ratio (patient 9, 0.5 mg/kg) (human Dll4): 0.82 ratio
B1: REGN421 (antibody, V domains shown)
VH: QVQLVESGGGVVQPGRSLRLSCAASGFTFSSYGMHWVRQAPGKGLEWVSFLWYDGTNKNYVESVKGRFTISRDNSKNMLYLEMNSLRAEDTAVYYCARDHDFRSGYEGWFDPWGQGTLVTVSS
VL: EIVLTQSPATLSLSPGERATLSCRASQSVSSYLAWYQQKPGQAPRLLIYDASNRATGIPARFSGSGSGTDFTLTISSLEPEDFAVYYCQHRSNWPPTFGGGTKVEIK
- Euthanized ([1]; REGN421 0.5 mg/kg/dose sc x3): 32 days
- TGI(%) ([1]; REGN421 0.5 mg/kg/dose sc x3): −13.7%
- TGD ([1]; REGN421 0.5 mg/kg/dose sc x3): 0 days
- Euthanized ([1]; REGN421 2 mg/kg/dose sc x3): 44 days
- TGI(%) ([1]; REGN421 2 mg/kg/dose sc x3): 83.1%
- TGD ([1]; REGN421 2 mg/kg/dose sc x3): 12 days
- reduction in tumor growth ([1]; REGN421 alone, dose not stated): 54%
- TGD [2]: 6 days
- TGI(%) at Day 39 [2]: 36.3%
- % TGI (A2780 cells; Humanized Dll4 SCID mice, 2.5 mg/kg): 83%
- % TGI (A2780 cells; SCID mice (native murine Dll4), mDll4Ab1 5 mg/kg 1x/week, VEGF-Trap 10 mg/kg 2x/week): −37%
- anti-tumor activity (in words) (A2780 cells; vendor SCID mice): did not exhibit any appreciable anti-tumor activity
